# Data: article PMC10656227
# Columns and labels:
# [1] = biological target: collagen IV NC1 domains of the NC1 hexamer from sea clam (sea clam (Spisula solidissima)); assay: SDS-PAGE (SDS resistance of the native hexamer); straight collagenase digest of tissue or animals; SDS-PAGE with 150 mM NaCl; sample at room temperature; Western blot with JK2
# [2] = biological target: collagen IV NC1 domains of the NC1 hexamer from sea clam (sea clam (Spisula solidissima)); assay: SDS-PAGE (SDS resistance of the native hexamer); straight collagenase digest of tissue or animals; regular SDS-PAGE without Cl^− supplement; sample at room temperature; Western blot with JK2
# [3] = biological target: collagen IV NC1 domains of the NC1 hexamer from caiman liver (caiman (Caiman crocodilus)); assay: SDS-PAGE (SDS resistance of the native hexamer); straight collagenase digest of tissue or animals; SDS-PAGE with 150 mM NaCl; sample at room temperature; Western blot with JK2
# [4] = biological target: collagen IV NC1 domains of the NC1 hexamer from leeches (leech (Hirudo medicinalis)); assay: as above
# [5] = biological target: collagen IV NC1 domains of the NC1 hexamer from leeches (leech (Hirudo medicinalis)); assay: SDS-PAGE (SDS resistance of the native hexamer); straight collagenase digest of tissue or animals; regular SDS-PAGE without Cl^− supplement; sample at room temperature; Western blot with JK2
# [6] = biological target: collagen IV NC1 domains of the NC1 hexamer from snapping turtle muscle (snapping turtle (Chelydra serpentina)); assay: SDS-PAGE (SDS resistance of the native hexamer); straight collagenase digest of tissue or animals; SDS-PAGE with 150 mM NaCl; sample at room temperature; Western blot with JK2
# [7] = biological target: collagen IV NC1 domains of the NC1 hexamer from green iguana heart and kidney (green iguana (Iguana iguana)); assay: as above
# [8] = biological target: collagen IV NC1 domains of the NC1 hexamer from green iguana heart and kidney (green iguana (Iguana iguana)); assay: SDS-PAGE (SDS resistance of the native hexamer); straight collagenase digest of tissue or animals; regular SDS-PAGE without Cl^− supplement; sample at room temperature; Western blot with JK2
# [9] = biological target: collagen IV NC1 domains of the NC1 hexamer from dogfish lens capsule, kidney and intestine (dogfish (Squalus acanthias)); assay: SDS-PAGE (SDS resistance of the native hexamer); purified NC1 hexamer; Tris-glycine SDS-PAGE with 150 mM NaCl in running buffer and sample buffer; sample at room temperature, not boiled; Coomassie, TCE or Western blot
# [10] = biological target: collagen IV NC1 domains of the NC1 hexamer from dogfish lens capsule, kidney and intestine (dogfish (Squalus acanthias)); assay: SDS-PAGE (SDS resistance of the native hexamer); purified NC1 hexamer; regular SDS-PAGE without Cl^− supplement; sample at room temperature, not boiled; Coomassie, TCE or Western blot
# [11] = biological target: collagen IV NC1 domains of the NC1 hexamer from mussel (mussel (Mytilus edulis)); assay: SDS-PAGE (SDS resistance of the native hexamer); straight collagenase digest of tissue or animals; SDS-PAGE with 150 mM NaCl; sample at room temperature; Western blot with JK2
# [12] = biological target: collagen IV NC1 domains of the NC1 hexamer from mussel (mussel (Mytilus edulis)); assay: SDS-PAGE (SDS resistance of the native hexamer); straight collagenase digest of tissue or animals; regular SDS-PAGE without Cl^− supplement; sample at room temperature; Western blot with JK2
# [13] = biological target: collagen IV NC1 domains of the NC1 hexamer from quick gloss snail (quick gloss snail (Zonitoides arboreus)); assay: SDS-PAGE (SDS resistance of the native hexamer); partially purified NC1 hexamer (SEC hexamer fraction); SDS-PAGE with 150 mM NaCl; sample at room temperature; Western blot with JK2 or TCE in-gel visualization
# [14] = biological target: collagen IV NC1 domains of the NC1 hexamer from quick gloss snail (quick gloss snail (Zonitoides arboreus)); assay: SDS-PAGE (SDS resistance of the native hexamer); partially purified NC1 hexamer (SEC hexamer fraction); regular SDS-PAGE without Cl^− supplement; sample at room temperature; Western blot with JK2 or TCE in-gel visualization
# [15] = biological target: collagen IV NC1 domains of the NC1 hexamer from market squid lens capsules (market squid (Doryteuthis opalescens)); assay: SDS-PAGE (SDS resistance of the native hexamer); partially purified NC1 hexamer (SEC hexamer fraction); SDS-PAGE with 150 mM NaCl; sample at room temperature; Western blot with JK2 or TCE in-gel visualization
# [16] = biological target: collagen IV NC1 domains of the NC1 hexamer from starfish gonads (starfish (Asterias rubens)); assay: SDS-PAGE (SDS resistance of the native hexamer); straight collagenase digest of tissue or animals; SDS-PAGE with 150 mM NaCl; sample at room temperature; Western blot with JK2
# [17] = biological target: collagen IV NC1 domains of the NC1 hexamer from banded killifish organs (banded killifish (Fundulus heteroclitus)); assay: as above
# [18] = biological target: collagen IV NC1 domains of the NC1 hexamer from banded killifish organs (banded killifish (Fundulus heteroclitus)); assay: SDS-PAGE (SDS resistance of the native hexamer); straight collagenase digest of tissue or animals; regular SDS-PAGE without Cl^− supplement; sample at room temperature; Western blot with JK2
# [19] = biological target: collagen IV NC1 domains of the NC1 hexamer from California blackworms (California blackworm (Lumbriculus variegatus)); assay: SDS-PAGE (SDS resistance of the native hexamer); straight collagenase digest of tissue or animals; SDS-PAGE with 150 mM NaCl; sample at room temperature; Western blot with JK2
# [20] = biological target: collagen IV NC1 domains of the NC1 hexamer from California blackworms (California blackworm (Lumbriculus variegatus)); assay: SDS-PAGE (SDS resistance of the native hexamer); straight collagenase digest of tissue or animals; regular SDS-PAGE without Cl^− supplement; sample at room temperature; Western blot with JK2
# [21] = biological target: collagen IV NC1 domains of the NC1 hexamer from African clawed frog kidney (African clawed frog (Xenopus laevis)); assay: SDS-PAGE (SDS resistance of the native hexamer); straight collagenase digest of tissue or animals; SDS-PAGE with 150 mM NaCl; sample at room temperature; Western blot with JK2
# [22] = biological target: collagen IV NC1 domains of the α121 NC1 hexamer from lens capsule basement membrane (bovine); assay: SDS-PAGE (SDS resistance of the native hexamer); purified NC1 hexamer; Tris-glycine SDS-PAGE with 150 mM NaCl in running buffer and sample buffer; sample at room temperature, not boiled; Coomassie, TCE or Western blot
# [23] = biological target: collagen IV NC1 domains of the NC1 hexamer from bovine kidney (cow (Bos taurus)); assay: as above
# [24] = biological target: collagen IV NC1 domains of the NC1 hexamer from placenta basement membrane (bovine); assay: as above
# [25] = biological target: collagen IV NC1 domains of the NC1 hexamer from sea squirt (sea squirt (Ciona intestinalis)); assay: SDS-PAGE (SDS resistance of the native hexamer); collagenase digest, soluble fraction; Bis-Tris gel, Mops running buffer with 150 mM NaCl, sample buffer with 400 mM NaCl; sample at room temperature; Western blot with JK2
# [26] = biological target: collagen IV NC1 domains of the NC1 hexamer from zebrafish material (zebrafish (Danio rerio)); assay: SDS-PAGE (SDS resistance of the native hexamer); partially purified NC1 hexamer (SEC hexamer fraction); SDS-PAGE with 150 mM NaCl; sample at room temperature; Western blot with JK2 or TCE in-gel visualization
# [27] = biological target: collagen IV NC1 domains of the NC1 hexamer from zebrafish material (zebrafish (Danio rerio)); assay: SDS-PAGE (SDS resistance of the native hexamer); partially purified NC1 hexamer (SEC hexamer fraction); regular SDS-PAGE without Cl^− supplement; sample at room temperature; Western blot with JK2 or TCE in-gel visualization
# [28] = biological target: collagen IV NC1 domains of the NC1 hexamer from rooster liver, kidney and chorioallantoic membrane (rooster (Gallus gallus domesticus)); assay: SDS-PAGE (SDS resistance of the native hexamer); purified NC1 hexamer; Tris-glycine SDS-PAGE with 150 mM NaCl in running buffer and sample buffer; sample at room temperature, not boiled; Coomassie, TCE or Western blot
# [29] = biological target: collagen IV NC1 domains of the NC1 hexamer from human kidney (human (Homo sapiens)); assay: as above
# [30] = biological target: collagen IV NC1 domains of the NC1 hexamer from axolotl kidney (axolotl (Ambystoma mexicanum)); assay: SDS-PAGE (SDS resistance of the native hexamer); straight collagenase digest of tissue or animals; SDS-PAGE with 150 mM NaCl; sample at room temperature; Western blot with JK2
substance,measurement,setting,value
collagen IV NC1 domains of the NC1 hexamer from sea clam (domain or fragment),stoichiometry N,[1],6
same,stoichiometry N,[2],6
collagen IV NC1 domains of the NC1 hexamer from caiman liver (domain or fragment),stoichiometry N,[3],6
collagen IV NC1 domains of the NC1 hexamer from leeches (domain or fragment),stoichiometry N,[4],6
same,stoichiometry N,[5],6
collagen IV NC1 domains of the NC1 hexamer from snapping turtle muscle (domain or fragment),stoichiometry N,[6],6
collagen IV NC1 domains of the NC1 hexamer from green iguana heart and kidney (domain or fragment),stoichiometry N,[7],6
same,stoichiometry N,[8],6
"collagen IV NC1 domains of the NC1 hexamer from dogfish lens capsule, kidney and intestine (domain or fragment)",stoichiometry N,[9],6
same,stoichiometry N,[10],6
collagen IV NC1 domains of the NC1 hexamer from mussel (domain or fragment),stoichiometry N,[11],6
same,stoichiometry N,[12],6
collagen IV NC1 domains of the NC1 hexamer from quick gloss snail (domain or fragment),stoichiometry N,[13],6
same,stoichiometry N,[14],6
collagen IV NC1 domains of the NC1 hexamer from market squid lens capsules (domain or fragment),stoichiometry N,[15],6
collagen IV NC1 domains of the NC1 hexamer from starfish gonads (domain or fragment),stoichiometry N,[16],6
collagen IV NC1 domains of the NC1 hexamer from banded killifish organs (domain or fragment),stoichiometry N,[17],6
same,stoichiometry N,[18],6
collagen IV NC1 domains of the NC1 hexamer from California blackworms (domain or fragment),stoichiometry N,[19],6
same,stoichiometry N,[20],6
collagen IV NC1 domains of the NC1 hexamer from African clawed frog kidney (domain or fragment),stoichiometry N,[21],6
collagen IV NC1 domains of the α121 NC1 hexamer from lens capsule basement membrane (domain or fragment),stoichiometry N,[22],6
collagen IV NC1 domains of the NC1 hexamer from bovine kidney (domain or fragment),stoichiometry N,[23],6
collagen IV NC1 domains of the NC1 hexamer from placenta basement membrane (domain or fragment),stoichiometry N,[24],6
collagen IV NC1 domains of the NC1 hexamer from sea squirt (domain or fragment),stoichiometry N,[25],6
collagen IV NC1 domains of the NC1 hexamer from zebrafish material (domain or fragment),stoichiometry N,[26],6
same,stoichiometry N,[27],6
"collagen IV NC1 domains of the NC1 hexamer from rooster liver, kidney and chorioallantoic membrane (domain or fragment)",stoichiometry N,[28],6
collagen IV NC1 domains of the NC1 hexamer from human kidney (domain or fragment),stoichiometry N,[29],6
collagen IV NC1 domains of the NC1 hexamer from axolotl kidney (domain or fragment),stoichiometry N,[30],6
